The values that follow come from patent US20110129459A1 (Chugai, published 2011).

To fix the notation:
B1: Lp5 variant of H0L0 (antibody, V domains shown)
VH: QVQLVQSGAEVKKPGASVKVSCKASGYTFTGYIMNWVRQAPGQGLEWMGLINPYNGGTSYNQKFKGRVTITADESTSTAYMELSSLRSEDTAVYYCARDGYDDGPYTMDYWGQGTLVTVSS
VL: DIQMTQSPSSLSASVGDRVTITCRTSENIYSFLAWYQQKPGKAPKLLIYNAKTLAQGVPSRFSGSGSGTDFTLTISSLQPEDFATYYCQHHYESPLTFGGGTKVEIKR
notes: copies: 2 + 2
B2: Hp1 variant of H0L0 (antibody, V domains shown)
VH: QVQLVQSGAEVKKPGASVKVSCKASGYTFTGYIMNWVRQAPGQGLEWMGLINPYNGGTSYNQKFQGRVTITADESTSTAYMELSSLRSEDTAVYYCARDGYDDGPYTMDYWGQGTLVTVSS
VL: DIQMTQSPSSLSASVGDRVTITCRTSENIYSFLAWYQQKPGKAPKLLIYNAKTLAKGVPSRFSGSGSGTDFTLTISSLQPEDFATYYCQHHYESPLTFGGGTKVEIK
B3: Hp6 variant of H0L0 (antibody, V domains shown)
VH: QVQLVQSGAEVKKPGASVKVSCKASGYTFTGYIMNWVRQAPGQGLEWMGLINPYNGGTSYNDKFKGRVTITADESTSTAYMELSSLRSEDTAVYYCARDGYDDGPYTMDYWGQGTLVTVSS
VL: DIQMTQSPSSLSASVGDRVTITCRTSENIYSFLAWYQQKPGKAPKLLIYNAKTLAKGVPSRFSGSGSGTDFTLTISSLQPEDFATYYCQHHYESPLTFGGGTKVEIK
B4: Hp9 variant of H0L0 (antibody, V domains shown)
VH: QVQLVQSGAEVKKPGASVKVSCKASGYTFTGYIMNWVRQAPGQGLEWMGLINPYNGGTSYNQQFKGRVTITADESTSTAYMELSSLRSEDTAVYYCARDGYDDGPYTMDYWGQGTLVTVSS
VL: DIQMTQSPSSLSASVGDRVTITCRTSENIYSFLAWYQQKPGKAPKLLIYNAKTLAKGVPSRFSGSGSGTDFTLTISSLQPEDFATYYCQHHYESPLTFGGGTKVEIK
B5: Lp4 variant of H0L0 (antibody, V domains shown)
VH: QVQLVQSGAEVKKPGASVKVSCKASGYTFTGYIMNWVRQAPGQGLEWMGLINPYNGGTSYNQKFKGRVTITADESTSTAYMELSSLRSEDTAVYYCARDGYDDGPYTMDYWGQGTLVTVSS
VL: DIQMTQSPSSLSASVGDRVTITCRTSENIYSFLAWYQQKPGKAPKLLIYNAQTLAKGVPSRFSGSGSGTDFTLTISSLQPEDFATYYCQHHYESPLTFGGGTKVEIK
B6: Hp7 variant of H0L0 (antibody, V domains shown)
VH: QVQLVQSGAEVKKPGASVKVSCKASGYTFTGYIMNWVRQAPGQGLEWMGEINPYNGGTSYNQKFKGRVTITADESTSTAYMELSSLRSEDTAVYYCARDGYDDGPYTMDYWGQGTLVTVSS
VL: DIQMTQSPSSLSASVGDRVTITCRTSENIYSFLAWYQQKPGKAPKLLIYNAKTLAKGVPSRFSGSGSGTDFTLTISSLQPEDFATYYCQHHYESPLTFGGGTKVEIK
B7: Hp13 variant of H0L0 (antibody, V domains shown)
VH: QVQLVQSGAEVKKPGASVKVSCKASGYTFTGYIMNWVRQAPGQGLEWMGLINPYNGGTSYNQKFQDRVTITADESTSTAYMELSSLRSEDTAVYYCARDGYDDGPYTMDYWGQGTLVTVSS
VL: DIQMTQSPSSLSASVGDRVTITCRTSENIYSFLAWYQQKPGKAPKLLIYNAKTLAKGVPSRFSGSGSGTDFTLTISSLQPEDFATYYCQHHYESPLTFGGGTKVEIK
B8: Lp2 variant of H0L0 (antibody, V domains shown)
VH: QVQLVQSGAEVKKPGASVKVSCKASGYTFTGYIMNWVRQAPGQGLEWMGLINPYNGGTSYNQKFKGRVTITADESTSTAYMELSSLRSEDTAVYYCARDGYDDGPYTMDYWGQGTLVTVSS
VL: DIQMTQSPSSLSASVGDRVTITCRTSEDIYSFLAWYQQKPGKAPKLLIYNAKTLAKGVPSRFSGSGSGTDFTLTISSLQPEDFATYYCQHHYESPLTFGGGTKVEIK
B9: Lp7 variant of H0L0 (antibody, V domains shown)
VH: QVQLVQSGAEVKKPGASVKVSCKASGYTFTGYIMNWVRQAPGQGLEWMGLINPYNGGTSYNQKFKGRVTITADESTSTAYMELSSLRSEDTAVYYCARDGYDDGPYTMDYWGQGTLVTVSS
VL: DIQMTQSPSSLSASVGDRVTITCRTSENIYSFLAWYQQKPGKAPKLLIYNAKTEAKGVPSRFSGSGSGTDFTLTISSLQPEDFATYYCQHHYESPLTFGGGTKVEIK
B10: Hp8 variant of H0L0 (antibody, V domains shown)
VH: QVQLVQSGAEVKKPGASVKVSCKASGYTFTGYIMNWVRQAPGQGLEWMGLIDPYNGGTSYNQKFKGRVTITADESTSTAYMELSSLRSEDTAVYYCARDGYDDGPYTMDYWGQGTLVTVSS
VL: DIQMTQSPSSLSASVGDRVTITCRTSENIYSFLAWYQQKPGKAPKLLIYNAKTLAKGVPSRFSGSGSGTDFTLTISSLQPEDFATYYCQHHYESPLTFGGGTKVEIK
B11: Lp3 variant of H0L0 (antibody, V domains shown)
VH: QVQLVQSGAEVKKPGASVKVSCKASGYTFTGYIMNWVRQAPGQGLEWMGLINPYNGGTSYNQKFKGRVTITADESTSTAYMELSSLRSEDTAVYYCARDGYDDGPYTMDYWGQGTLVTVSS
VL: DIQMTQSPSSLSASVGDRVTITCRTSENIYSFLAWYQQKPGKAPKLLIYDAKTLAKGVPSRFSGSGSGTDFTLTISSLQPEDFATYYCQHHYESPLTFGGGTKVEIK
B12: Hp5 variant of H0L0 (antibody, V domains shown)
VH: QVQLVQSGAEVKKPGASVKVSCKASGYTFTGYIMNWVQQSPGQGLEWMGLINPYNGGTSYNQKFKGRVTITADESTSTAYMELSSLRSEDTAVYYCARDGYDDGPYTMDYWGQGTLVTVSS
VL: DIQMTQSPSSLSASVGDRVTITCRTSENIYSFLAWYQQKPGKAPKLLIYNAKTLAKGVPSRFSGSGSGTDFTLTISSLQPEDFATYYCQHHYESPLTFGGGTKVEIK
B13: Lp1 variant of H0L0 (antibody, V domains shown)
VH: QVQLVQSGAEVKKPGASVKVSCKASGYTFTGYIMNWVRQAPGQGLEWMGLINPYNGGTSYNQKFKGRVTITADESTSTAYMELSSLRSEDTAVYYCARDGYDDGPYTMDYWGQGTLVTVSS
VL: DIQMTQSPSSLSASVGDRVTITCQTSENIYSFLAWYQQKPGKAPKLLIYNAKTLAKGVPSRFSGSGSGTDFTLTISSLQPEDFATYYCQHHYESPLTFGGGTKVEIK
B14: Lp6 variant of H0L0 (antibody, V domains shown)
VH: QVQLVQSGAEVKKPGASVKVSCKASGYTFTGYIMNWVRQAPGQGLEWMGLINPYNGGTSYNQKFKGRVTITADESTSTAYMELSSLRSEDTAVYYCARDGYDDGPYTMDYWGQGTLVTVSS
VL: DIQMTQSPSSLSASVGDRVTITCRTSENIYSFLAWYQQKPGKAPKLLIYNAKTLADGVPSRFSGSGSGTDFTLTISSLQPEDFATYYCQHHYESPLTFGGGTKVEIKR
notes: copies: 2 + 2

This assay deals with T1, cytoplasmic domain-lacking human NR10 on CHO cells (hNR10-expressing CHO cells) (human, UniProt Q8NI17 20-553).
T1 construct: also called NR10-expressing cells
T1 sequence: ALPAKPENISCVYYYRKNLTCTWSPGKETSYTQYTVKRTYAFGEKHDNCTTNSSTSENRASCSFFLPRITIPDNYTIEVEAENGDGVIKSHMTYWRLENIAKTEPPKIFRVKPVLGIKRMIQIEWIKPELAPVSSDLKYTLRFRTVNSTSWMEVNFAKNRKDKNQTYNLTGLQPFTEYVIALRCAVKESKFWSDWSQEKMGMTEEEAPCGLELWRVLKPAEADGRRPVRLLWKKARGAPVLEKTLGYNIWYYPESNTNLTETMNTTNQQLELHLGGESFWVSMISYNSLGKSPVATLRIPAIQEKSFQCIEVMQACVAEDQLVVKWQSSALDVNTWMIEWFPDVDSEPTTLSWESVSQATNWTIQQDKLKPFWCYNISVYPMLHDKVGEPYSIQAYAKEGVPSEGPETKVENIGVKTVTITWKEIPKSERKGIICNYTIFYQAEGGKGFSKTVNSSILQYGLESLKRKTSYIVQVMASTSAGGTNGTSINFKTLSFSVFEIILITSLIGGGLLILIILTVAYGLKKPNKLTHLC
The assay can be described thus: FMAT competition on hNR10-expressing CHO cells: antibody titrated against FMAT Blue-labeled hIL-31; FL1 = cell-bound labeled hIL-31; mean±S.D. (n=3). As to the method:
Antibodies were assessed for the activity of inhibiting the IL-31/NR10 binding by using hNR10-expressing CHO cells as described below. The chimeric NS22 antibody and NS22_H0L0 (H chain, H0-SKSC/SEQ ID NO: 54; L chain, L0/SEQ ID NO: 56) were diluted at an appropriate concentration using Assay buffer (10 mM HEPES, 140 mM NaCl, 2.5 mM CaCl₂, 3 mM MgCl₂, 2% FBS, 0.01% NaN₃, pH7.4), and further eight serial dilutions were prepared at a common dilution ration of 2. The dilutions were added at 40 μl/well to plates (96-Well FMAT Plates, Applied Biosystems). Then, FMAT Blue-labeled hIL-31 was diluted 400 times with Assay buffer, and added at 20 μl/well. Finally, a cell suspension adjusted to 2.5×10⁵ cells/ml using Assay buffer was added at 40 μl/well (final 1×10⁴ cells/well). Two hours after addition of cells, the fluorescence (FL1) was measured using the 8200 Cellular Detection System (Applied Biosystems).
Each variant was tested for the activity of inhibiting the hIL-31/hNR10 binding by using FMAT. The test was carried out according to the method as described in Example 4.
Take B1: the binding result is “binds”. With B2, the binding result is “binds”. Take B3: the “IC50 (read off the curve)” value was ~0.1 µg/mL. Take B4: the “IC50 (read off the curve)” value was ~0.1 µg/mL. Regarding B5, the binding result was “binds”.

In the case of B6, the binding result is “binds”. Same read-out and setting: in the case of B7 it was “binds”; in that of B8, “binds”; in that of B9, “binds”.

B10: the binding result is “binds”.

As to B11, the binding result was “binds”. On the same count and under the same terms, the result for B12 reads “binds”; that for B13, “binds”; that for B14, “binds”.
